# Assay results published in PMC10578488 (RNA, 2023).
# B1: recombinant mouse pICln (natural protein, UniProt Q61189 1-236, looked up)
# chain: MSFLKSFPPPGSADGLRLQQPDTEAVLNGKGLGTGTLYIAESRLSWLDGSGLGFSLEYPTISLHAVSRDPNAYPQEHLYVMVNAKLGEESKEPPSDEDEEDNDDIEPISEFRFVPSDKSALEAMFTAMCECQALHPDPEDEDSDDYDGEEYDVEAHEQGQGDIPTFYTYEEGLSHLTAEGQATLERLEGMLSQSVSSQYNMAGVRTEDSVRNYEDGMEVETTPTVAGQFEDADVDH
# notes: pICln, mouse, full length; source: E. coli Rosetta, purified (nickel beads, MonoQ)
# B2: Lsm11 lacking residues 211-322 (chain of the Lsm10/11 heterodimer) (natural protein, human, UniProt P83369 1-360, looked up)
# chain: MEERERGARSAGAGSPARPPSPRLDVSSDSFDPLLALYAPRLPPIPYPNAPCFNNVAEYESFLRTGVRGGGRGRGRARGAAAGSGVPAAPGPSGRTRRRPDAPAPDPERIQRLRRLMVAKEEGDGAAGAGRRGPGRSRKAPRNVLTRMPLHEGSPLGELHRCIREGVKVNVHIRTFKGLRGVCTGFLVAFDKFWNMALTDVDETYRKPVLQSRKKKRKPKVDYQQVFTRHINQIFIRGENVLLVHLAQ
# notes: Lsm11, human, lacking residues 211-322 (internal loop); The Lsm11 chain of m2, written alone for the pairs Lsm11-PRMT5 and Lsm11-Lsm10; also called Lsm11ΔL; source: High5 insect cells (baculovirus), coexpressed with MBP-Lsm10, purified (nickel beads, HiTrap Heparin)
# B3: Lsm10-MBP/Lsm11 heterodimer (wild-type, full-length Lsm11) (complex, human)
# chain 1: MAVSHSVKERTISENSLIILLQGLQGRVTTVDLRDESVAHGRIDNVDAFMNIRLAKVTYTDRWGHQVKLDDLFVTGRNVRYVHIPDDVNITSTIEQQLQIIHRVRNFGGKGQGRWEFPPKNCK
# chain 2: MEERERGARSAGAGSPARPPSPRLDVSSDSFDPLLALYAPRLPPIPYPNAPCFNNVAEYESFLRTGVRGGGRGRGRARGAAAGSGVPAAPGPSGRTRRRPDAPAPDPERIQRLRRLMVAKEEGDGAAGAGRRGPGRSRKAPRNVLTRMPLHEGSPLGELHRCIREGVKVNVHIRTFKGLRGVCTGFLVAFDKFWNMALTDVDETYRKPVLGKAYERDSSLTLTRLFDRLKLQDSSKKEADSKSAVEDSTLSRYSQTSTWKLASVWGRADTGRGSHKRSRSVPSSLQASAREESRSELSGRTTRTDGSSVGGTFSRATTLSRGQSRKKKRKPKVDYQQVFTRHINQIFIRGENVLLVHLAQ
# notes: Lsm10, human, full length; Lsm11, human, full length, 360 amino acids; The results call the fusion Lsm10-MBP, the methods say MBP was added to the amino terminus of Lsm10; also called Lsm10/11; 10/11; source: baculovirus-expressed, recombinant; not shown: MBP, N-terminal, kept
# B4: Lsm10/11ΔL heterodimer (MBP-Lsm10 with Lsm11 lacking the internal loop, amino acids 211-322) (complex, human)
# chain 1: MAVSHSVKERTISENSLIILLQGLQGRVTTVDLRDESVAHGRIDNVDAFMNIRLAKVTYTDRWGHQVKLDDLFVTGRNVRYVHIPDDVNITSTIEQQLQIIHRVRNFGGKGQGRWEFPPKNCK
# chain 2: MEERERGARSAGAGSPARPPSPRLDVSSDSFDPLLALYAPRLPPIPYPNAPCFNNVAEYESFLRTGVRGGGRGRGRARGAAAGSGVPAAPGPSGRTRRRPDAPAPDPERIQRLRRLMVAKEEGDGAAGAGRRGPGRSRKAPRNVLTRMPLHEGSPLGELHRCIREGVKVNVHIRTFKGLRGVCTGFLVAFDKFWNMALTDVDETYRKPVLQSRKKKRKPKVDYQQVFTRHINQIFIRGENVLLVHLAQ
# notes: Lsm10, human, full length; Lsm11, human, lacking residues 211-322 (internal loop); Purified on nickel beads; also called Lsm10/11ΔL dimer; Lsm11ΔL; source: High5 insect cells (baculovirus), purified (nickel beads, HiTrap Heparin); not shown: MBP, N-terminal, kept
# How the values were obtained:
# Conditions in all cases: both partners purified
# [1] = molecular target: T1, recombinant human PRMT5 (chain of the PRMT5/MEP50 complex) (human, UniProt O14744 1-637); test: cryo-EM structure; PRMT5/MEP50, Lsm10/11 and pICln mixed 1:1:1.2, complex purified on Superose 6 (25 mM Tris pH 7.5, 150 mM NaCl, 2 mM DTT); map at 2.86 Å, C1 symmetry
# T1 construct: PRMT5, human, full length; The PRMT5 chain of m17, written alone for the pairs seen in the cryo-EM structures; source: High5 insect cells (baculovirus), coexpressed with MEP50, purified (nickel beads, Superdex 200)
# [2] = molecular target: T2, recombinant PRMT5/MEP50 complex (human, UniProt O14744 1-637; Q9BQA1 1-342); test: as above
# T2 construct: PRMT5, human, full length; MEP50, human, full length; also called PRMT5/MEP50 heterooctamer; PRMT5/MEP50 heterodimer; source: High5 insect cells (baculovirus), coexpressed, purified (nickel beads, Superdex 200); copies: 4 + 4
# [3] = molecular target: B3; test: pull-down; recombinant PRMT5/MEP50 mixed with MBP-Lsm10/11 heterodimer (molar ratio 1:1) in the presence of recombinant pICln, collected on amylose beads via MBP on Lsm10; silver staining
# [4] = molecular target: T2, recombinant PRMT5/MEP50 complex; test: pull-down; recombinant PRMT5/MEP50 mixed with MBP-Lsm10/11 heterodimer (molar ratio 1:1) without pICln, collected on amylose beads via MBP on Lsm10; silver staining
# T2 sequence (O14744 whole entry, chain 1 of 2): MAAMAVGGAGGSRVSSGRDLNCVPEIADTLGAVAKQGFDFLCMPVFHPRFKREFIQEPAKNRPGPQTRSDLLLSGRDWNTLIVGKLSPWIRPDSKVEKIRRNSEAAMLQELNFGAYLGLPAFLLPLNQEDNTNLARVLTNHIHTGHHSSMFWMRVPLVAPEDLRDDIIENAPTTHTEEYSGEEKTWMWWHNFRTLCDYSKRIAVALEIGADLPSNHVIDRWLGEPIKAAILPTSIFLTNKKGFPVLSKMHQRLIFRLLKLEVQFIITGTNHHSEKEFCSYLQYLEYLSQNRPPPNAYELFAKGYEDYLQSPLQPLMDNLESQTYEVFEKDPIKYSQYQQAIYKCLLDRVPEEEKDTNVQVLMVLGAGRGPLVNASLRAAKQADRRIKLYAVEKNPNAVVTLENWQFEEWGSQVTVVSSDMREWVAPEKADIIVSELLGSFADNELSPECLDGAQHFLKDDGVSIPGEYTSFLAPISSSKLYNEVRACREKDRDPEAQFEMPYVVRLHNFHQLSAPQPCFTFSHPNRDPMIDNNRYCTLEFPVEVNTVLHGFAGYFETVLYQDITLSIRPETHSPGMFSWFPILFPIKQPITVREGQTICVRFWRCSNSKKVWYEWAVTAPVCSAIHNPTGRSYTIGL
# T2 sequence (Q9BQA1 whole entry, chain 2 of 2): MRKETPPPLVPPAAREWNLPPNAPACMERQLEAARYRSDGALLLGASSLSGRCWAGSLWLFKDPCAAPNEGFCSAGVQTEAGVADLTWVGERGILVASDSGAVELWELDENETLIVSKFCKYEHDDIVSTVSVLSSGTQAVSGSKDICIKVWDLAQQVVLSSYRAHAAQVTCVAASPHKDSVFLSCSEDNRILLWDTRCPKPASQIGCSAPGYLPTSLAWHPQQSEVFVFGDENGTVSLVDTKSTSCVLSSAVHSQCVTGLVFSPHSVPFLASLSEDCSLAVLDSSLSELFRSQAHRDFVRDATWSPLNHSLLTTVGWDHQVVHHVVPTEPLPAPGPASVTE
# T1 sequence (O14744 whole entry, one chain of several): as the sequence (O14744 whole entry, chain 1 of 2) above
binder,measurement,setting,value
B1,binding result,[1],binds
same,binding result,[2],binds
same,binding result,[3],binds
B2,binding result,[1],binds
B3,binding result,[4],binds
B4,binding result,[2],binds
